The target in assay [1] is SNAP-tagged S. cerevisiae Arp2/3 complex (dye-labelled) (S. cerevisiae) (UniProt P32381). Put plainly: single-molecule TIRF colocalisation; 649-biotin-SNAP-Arp2/3 complex anchored by streptavidin; 20 nM Abp1-SNAP-549 flowed in; no actin; 0.25 s intervals for 120 s.
Assay [2] has the same target. As to the kind of experiment: single-molecule TIRF colocalisation; 649-biotin-SNAP-Arp2/3 complex anchored by streptavidin; 20 nM Abp1-SNAP-549 with 200 nM unlabeled Abp1 (220 nM total); 0.25 s intervals for 120 s; double exponential fit.
The target of assay [3] is Arp2/3 complex (untagged, yeast) (yeast (RedStar yeast cakes)) (UniProt P32381). As to the kind of experiment: negative-stain single-particle electron microscopy; Abp1-SNAP and Arp2/3 complex at 1:1 molar ratio (100 nM each), 30 min at room temperature, uranyl formate stain; random conical tilt 3D reconstructions at 21 Å.
The target is the same in assay [4]. Put plainly: SEC; Superdex 200 Increase 10/300 GL, 4 °C; 0.7 µM Arp2/3 complex and 7 µM Abp1 incubated >1 h on ice; 10 mM HEPES pH 7.0, 50 mM KCl, 1 mM EGTA, 2 mM MgCl2, 0.5 mM DTT, 0.1 mM ATP; bands of the peak fraction quantified on stain-free gels against standards.
For assay [5], the target named is Rabbit skeletal muscle actin (filaments) (rabbit) (UniProt P68135). As to the kind of experiment: single-molecule TIRF colocalisation; as a1 with 0.5 µM Abp1 present; double exponential fit.
In assay [6] the target is Abp1-SNAP (S. cerevisiae Abp1 with C-terminal SNAP-tag, dye-labelled) (S. cerevisiae) (UniProt P15891). As to the kind of experiment: single-molecule TIRF colocalisation; Abp1-SNAP-biotin-549 anchored by streptavidin; JF646-SNAP-Arp2/3 flowed in (10 nM in the results, 15 nM in the methods); no actin; 0.25 s intervals for 60 s.
Assay [7] addresses Rabbit skeletal muscle actin (filaments) (rabbit) (UniProt P68135). Put plainly: single-molecule TIRF colocalisation; 10 nM JF646-SNAP-Arp2/3 on tethered, preformed unbranched OG-labeled actin filaments, no actin monomers, no Abp1; recorded at 0.15 s intervals; TIRF buffer pH 7.4; single exponential fit.

The source of these data is publication PMC6057921.

As for “Abp1-SNAP (S. cerevisiae Abp1 with C-terminal SNAP-tag, dye-labelled) (from UniProt P15891 1-592) (natural protein)”, in assay [1], the average lifetime was 0.36 s. In assay [2], the lifetime of long-lived interactions at 220 nM total Abp1 came to 36 s. In addition, the percent of particles in the Class 1 Abp1-bound reconstruction in assay [3] is 30%.

As for “Abp1 (S. cerevisiae, untagged after GST cleavage) (from UniProt P15891 1-592) (natural protein)”, the stoichiometry N (Abp1 per Arp2/3 complex) in assay [4] is 2.

As for “SNAP-tagged S. cerevisiae Arp2/3 complex (dye-labelled) (from UniProt P32381 1-391; P47117 1-449; P38328 1-384)”, the lifetime of the longer-lived binding events with 0.5 µM Abp1 in assay [5] came to 2 s. The substance also returned an average dwell time in assay [6] of 0.37 s. This substance registered an average lifetime on filament sides in assay [7] of 0.37 s.
